Laboratory results reported in patent US20210283212A1 (RA PHARMACEUTICALS, published 2021).
Starred links: 1 amine or outer side, 2 acyl side, 3 side chain; linkers in the order of their positions; H or OH if unused. Positions of bridges follow the written chain, without caps; N, C: chain ends. Non-standard residues stand in square brackets, D forms with d. Primed or numbered codes have the meaning given here. *: point of attachment. mXylyl(3) = bridging moiety between the two residues given in brackets; mXylyl″ = bridging moiety between the two marked residues; Trp(7-aza) = N[C@@H](Cc1c[nH]c2ncccc12)C(=O)O; Phe(3-Cl) = N[C@@H](Cc1cccc(Cl)c1)C(=O)O; Tiq1c(1S) = O=C(O)[C@H]1NCCc2ccccc21; pXylylene = c1cc(C[*:2])ccc1C[*:1]; dPhg = N[C@@H](C(=O)O)c1ccccc1; Phg = N[C@H](C(=O)O)c1ccccc1; Tle = CC(C)(C)[C@H](N)C(=O)O; NMeS = CN[C@@H](CO)C(=O)O; hCys = N[C@@H](CCS)C(=O)O; Heptanoyl = CCCCCCC(=O)*; Nle = CCCC[C@H](N)C(=O)O; Pra = C#CC[C@H](N)C(=O)O; Nva = CCC[C@H](N)C(=O)O; Sar = CNCC(=O)O

Target: human C5 protein (human, UniProt P01031 19-673; P01031 678-1676)
Assay: cell-based or functional assay

Row | Binder | Avg. IC50, human hemolysis assay
1 | Ac-[Nva]C[Tiq1c(1S)]T[Trp(7-aza)]EY[NMeS]HC[Nva]-NH2 (linker 2-10 via mXylyl(3)) [R3122] | > 50000 nM
2 | Ac-[Nva]CYE[Sar][Tle]Y[Trp(7-aza)]E[Nva][Nva]PC-NH2 (linker 2-13 via mXylyl″) [R3010] | > 100000 nM
3 | Ac-[Nva]T[Phg]C[Trp(7-aza)]EY[NMeS]AC[Nva]-NH2 (linker 4-10 via mXylyl(3)) [R3111] | > 5000 nM
4 | Ac-CVERFCDVYWEF[Pra]-NH2 (linker 1-6 via mXylyl(3)) [R3147] | 138 nM
5 | Ac-CAERFCD[Tle]YWEYP[Phg][Nva]-NH2 (linker 1-6 via mXylyl(3)) [R3148] | 8.5 nM
6 | Ac-[Nva]C[Phg]T[Trp(7-aza)]EY[NMeS][dA]C[Nva]-NH2 (linker 2-10 via mXylyl(3)) [R3135] | > 25000 nM
7 | Ac-[Nva]CYNN[Tle]E[Trp(7-aza)]ECP[Phg][Tle]-NH2 (cysteine pairing not given here) [R3126] | > 3000 nM
8 | Ac-[Nva]C[Phg]T[Trp(7-aza)]EY[NMeS]H[hCys][Nva]-NH2 (linker 2-10 via mXylyl(3)) [R3105] | > 5000 nM
9 | Ac-[Nva]C[Phg]T[Trp(7-aza)]EY[NMeS]HC[Nva]-NH2 (linker 2-10 via mXylyl″) [R3012] | 148 nM
10 | CVERFCDGYWEYP ([mXylyl(1,6)]Ac-C-V-E-R-F-C-D-Tbg-Y-W-E-Y-P-NH2) [R3143] | 18.6 nM
11 | Ac-CVERFCDVY[Trp(7-aza)]EYP-NH2 (linker 1-6 via mXylyl(3)) [R3142] | 44.6 nM
12 | Ac-C[Tle]ERFCD[Tle]YWEF-NH2 (linker 1-6 via mXylyl(3)) [R3139] | 97.2 nM
13 | Ac-[Nva]C[Phg][dA][Trp(7-aza)]EY[NMeS]HC[Nva]-NH2 (linker 2-10 via mXylyl(3)) [R3133] | > 75000 nM
14 | Ac-[Nva]C[Phg]T[Trp(7-aza)]EY[NMeS]H[hCys][Nva]-NH2 (linker 2-10 via pXylylene; SMILES CCC[C@H](NC(=O)[C@@H]1CCSCc2ccc(cc2)CSC[C@H](NC(=O)[C@H](CCC)NC(C)=O)C(=O)N[C@@H](c2ccccc2)C(=O)N[C@@H]([C@@H](C)O)C(=O)N[C@@H](Cc2c[nH]c3ncccc23)C(=O)N[C@@H](CCC(=O)O)C(=O)N[C@@H](Cc2ccc(O)cc2)C(=O)N(C)[C@@H](CO)C(=O)N[C@@H](Cc2c[nH]cn2)C(=O)N1)C(N)=O) [R3106] | > 5000 nM
15 | VCGTWEYSHGCV (not fully specified; [mXylyl(2,10)]Ac-Nvl-C-Phg-T-azaTrp-E-Y-(N-Me)S-H-G-C-Nvl-NH2) [R3101] | > 100000 nM
16 | Ac-[Nva]CYKNYH[Trp(7-aza)]EYP[Tle]Y-NH2 (SMILES CCC[C@H](NC(C)=O)C(=O)N[C@@H](CS)C(=O)N[C@@H](Cc1ccc(O)cc1)C(=O)N[C@@H](CCCCN)C(=O)N[C@@H](CC(N)=O)C(=O)N[C@@H](Cc1ccc(O)cc1)C(=O)N[C@@H](Cc1c[nH]cn1)C(=O)N[C@@H](Cc1c[nH]c2ncccc12)C(=O)N[C@@H](CCC(=O)O)C(=O)N[C@@H](Cc1ccc(O)cc1)C(=O)N1CCC[C@H]1C(=O)N[C@H](C(=O)N[C@@H](Cc1ccc(O)cc1)C(N)=O)C(C)(C)C) [R3000] | > 10000 nM
17 | Ac-CVARFCD[Tle]Y[Trp(7-aza)]EYP[Phg][Nva]-NH2 (linker 1-6 via mXylyl(3)) [R3150] | 32 nM
18 | Ac-CVARFCD[Tle]Y[Trp(7-aza)]EYP[dPhg][Nva]-NH2 (linker 1-6 via mXylyl(3)) [R3151] | 165 nM
19 | Ac-Y[Nva]C[Phg]T[Trp(7-aza)]EY[NMeS]HC[Nva]-NH2 (linker 3-11 via mXylyl(3)) [R3113] | > 5000 nM

Row | Binder | Avg. IC50, human hemolysis assay
20 | Ac-[Nva]CYE[Sar][Tle]Y[Trp(7-aza)]EC[Nva]P[Nva]-NH2 (linker 2-10 via mXylyl″) [R3009] | > 100000 nM
21 | Ac-C[Phg]T[Trp(7-aza)]EY[NMeS]HC[Nva]P[Nva]-NH2 (linker 1-9 via mXylyl″) [R3014] | 1420 nM
22 | Heptanoyl-[Nva]C[dPhg]T[Trp(7-aza)]EY[NMeS]AC[Nva]-NH2 (linker 2-10 via mXylyl(3)) [R3136] | > 50000 nM
23 | Ac-[Nva]C[Phg]T[Trp(7-aza)]EYPHC[Nva]-NH2 (linker 2-10 via mXylyl(3)) [R3102] | 978 nM
24 | Ac-[Nva]C[Phg]T[Trp(7-aza)]EY[NMeS]HC[Nva]P-NH2 (linker 2-10 via mXylyl″) [R3011] | 112 nM
25 | Ac-[Nva][hCys][Phg]T[Trp(7-aza)]EY[NMeS]HC[Nva]-NH2 (linker 2-10 via pXylylene; SMILES CCC[C@H](NC(=O)[C@@H]1CSCc2ccc(cc2)CSCC[C@H](NC(=O)[C@H](CCC)NC(C)=O)C(=O)N[C@@H](c2ccccc2)C(=O)N[C@@H]([C@@H](C)O)C(=O)N[C@@H](Cc2c[nH]c3ncccc23)C(=O)N[C@@H](CCC(=O)O)C(=O)N[C@@H](Cc2ccc(O)cc2)C(=O)N(C)[C@@H](CO)C(=O)N[C@@H](Cc2c[nH]cn2)C(=O)N1)C(N)=O) [R3104] | > 2000 nM
26 | Ac-CVERFCD[Tle]YWEF-NH2 (linker 1-6 via mXylyl(3)) [R3138] | 87.2 nM
27 | Ac-[Nva][hCys][Phg]T[Trp(7-aza)]EY[NMeS]H[hCys][Nva]-NH2 (linker 2-10 via pXylylene; SMILES CCC[C@H](NC(=O)[C@@H]1CCSCc2ccc(cc2)CSCC[C@H](NC(=O)[C@H](CCC)NC(C)=O)C(=O)N[C@@H](c2ccccc2)C(=O)N[C@@H]([C@@H](C)O)C(=O)N[C@@H](Cc2c[nH]c3ncccc23)C(=O)N[C@@H](CCC(=O)O)C(=O)N[C@@H](Cc2ccc(O)cc2)C(=O)N(C)[C@@H](CO)C(=O)N[C@@H](Cc2c[nH]cn2)C(=O)N1)C(N)=O) [R3108] | > 75000 nM
28 | Ac-CVERFCDVYWEYP-NH2 (linker 1-6 via mXylyl(3)) [R3140] | 17.9 nM
29 | Ac-C[Tle]ERFCDVYWEF-NH2 (linker 1-6 via mXylyl(3)) [R3146] | 107 nM
30 | Ac-[Nva]C[Phg]T[Trp(7-aza)]EY[NMeS]HC-NH2 (linker 2-10 via mXylyl″) [R3013] | 344 nM
31 | Ac-[Nle]C[Phg]T[Trp(7-aza)]EY[NMeS]HC[Nva]-NH2 (linker 2-10 via mXylyl(3)) [R3112] | > 5000 nM
32 | Ac-[Nva][hCys][Phg]T[Trp(7-aza)]EY[NMeS]HC[Nva]-NH2 (linker 2-10 via mXylyl(3)) [R3103] | > 25000 nM
33 | Ac-[Nva]C[Phg]T[Trp(7-aza)]E[Phe(3-Cl)][NMeS]AC[Nva]-NH2 (linker 2-10 via mXylyl(3)) [R3134] | > 5000 nM
34 | Ac-[Nva]CYNN[Tle]E[Trp(7-aza)]ECP[Phg][Tle]-NH2 (linker 2-10 via mXylyl(3)) [R3127] | > 75000 nM
35 | Ac-[Nva][hCys][Phg]T[Trp(7-aza)]EY[NMeS]H[hCys][Nva]-NH2 (linker 2-10 via mXylyl(3)) [R3107] | > 75000 nM
36 | Ac-CVERFCDVYWEFP-NH2 (linker 1-6 via mXylyl(3)) [R3141] | 24.5 nM
37 | Ac-CAERFCD[Tle]YWEYP[dPhg][Nva]-NH2 (linker 1-6 via mXylyl(3)) [R3149] | 13.6 nM
38 | Heptanoyl-C[dPhg]T[Trp(7-aza)]EY[NMeS]AC[Nva]-NH2 (linker 1-9 via mXylyl(3)) [R3137] | > 100000 nM
